Target: SARS-CoV-2 Cys-like protease (Mpro) (SARS-CoV-2 (Wuhan-Hu-1 strain))
Test: SEC

## SARS-CoV-2 Cys-like protease (Mpro) (enzyme)
  stoichiometry N: 2

Source: doi:10.1101/2020.07.16.20155853
